Assay [1] deals with T1, cynomolgus TREM-1 (cTREM-1) protein (cynomolgus monkey).
T1 construct: also called cyno TREM-1
T1 chain: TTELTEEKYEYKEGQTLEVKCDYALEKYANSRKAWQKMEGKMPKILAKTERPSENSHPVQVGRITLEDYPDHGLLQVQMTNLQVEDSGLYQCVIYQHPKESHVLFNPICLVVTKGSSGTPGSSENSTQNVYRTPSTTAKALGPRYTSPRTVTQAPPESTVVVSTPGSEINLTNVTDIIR
Kind of assay: SPR, mAb captured by anti-Fc, cTREM-1 as analyte. The procedure:
Binding studies were performed on a ProteOn Analyzer (BioRad) that measures molecular interactions in real time through surface plasmon resonance. Experiments were run at 25° C. and the samples were stored at 15° C. in the sample compartment. The signal (RU, response units) reported by the ProteOn is directly correlated to the mass on the individual sensor chip surfaces in six parallel flow cells. Anti-human Fc monoclonal or anti-murine Fc polyclonal antibody from Biacore human or mouse Fc capture kits were immobilized in horizontal direction onto flow cells of a GLM sensor chip according to the manufacturer's instructions. The final immobilization level of capture antibody was approximately 2600-6000 RU in different experiments. […] Binding of hTREM-1 or cTREM-1 proteins was conducted by injecting analyte (antigen) over all flow cells in horizontal direction to allow for comparative analyses of binding to different captured anti-TREM-1 antibodies relative to binding to the reference interspot. hTREM-1 or cTREM-1 proteins was diluted serially 1:3 to 1.2-100 nM or into running buffer, injected at 100 μl/min for 250 s and allowed to dissociate for 600s. The GLM surface was regenerated after each injection cycle of analyte via two 18 s injections of 10 mM Glycine, pH 1.7 and 50 mM NaOH at 100 μl/min. This regeneration step removed the anti-TREM-1 antibody and any bound TREM-1 protein from the immobilized capture antibody surface, and allowed for the subsequent binding of the next interaction sample pair.
Background: Surface plasmon resonance follows binding to a sensor surface in real time, without labels.

The target in assay [2] is T1, cynomolgus TREM-1 (cTREM-1) protein. Kind of assay: SPR, mAb captured by anti-Fc, cTREM-1 as analyte (Example 11). The procedure:
Binding studies were performed on a ProteOn Analyzer (BioRad) that measures molecular interactions in real time through surface plasmon resonance. Experiments were run at 25° C. and the samples were stored at 15° C. in the sample compartment. The signal (RU, response units) reported by the ProteOn is directly correlated to the mass on the individual sensor chip surfaces in six parallel flow cells.
Anti-human Fc monoclonal or anti-murine Fc polyclonal antibody from Biacore human or mouse Fc capture kits were immobilized in horizontal direction onto flow cells of a GLM sensor chip according to the manufacturer's instructions. The final immobilization level of capture antibody was approximately 2600-6000 RU in different experiments. […] This regeneration step removed the anti-TREM-1 antibody and any bound TREM-1 protein from the immobilized capture antibody surface, and allowed for the subsequent binding of the next interaction sample pair.

Assay [3] addresses T2, cTREM-1 construct, residues M1-R180 of SEQ ID NO: 12 with six histidine residues at the C-terminus (cynomolgus monkey).
T2 chain: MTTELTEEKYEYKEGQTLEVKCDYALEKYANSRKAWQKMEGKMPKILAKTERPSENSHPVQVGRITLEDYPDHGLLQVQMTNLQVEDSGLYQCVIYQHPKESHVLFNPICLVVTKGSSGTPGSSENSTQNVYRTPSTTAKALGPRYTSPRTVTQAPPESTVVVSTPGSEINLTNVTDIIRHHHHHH
Nature of the assay: HX-MS.
Method: Non-deuterated controls were prepared by diluting into protiated hepes buffer. The hydrogen exchange experiments were performed on a waters HDX nanoAcquity ultra-high performance liquid chromatography (UPLC) system (Waters Corporation, Milford, Mass., USA) which included the HD-x PAL auto sampler (LEAP Technologies Inc., Carrboro, N.C., USA) for automated sample preparation. The LC tubing, pre- and analytical columns and switching valves were located in a chamber cooled to 0.3° C. The trypsin digestion column was stored at 15° C. Hydrogen exchange reactions were performed at 20° C. Mass analysis was performed online using a Waters SYNAPT G2 HDMS mass spectrometer.
The mass spectrometer was operated in positive ion mode with ion mobility separation enabled. […] Deuterated samples were analysed using the 6 V low energy trap collision offset only.
The MS^E-data was analysed using Waters ProteinLynx Global Server 2.5 and peptides of hTREM-1 were identified that covered 80% of the protein sequence (Table 3) and peptides of cTREM-1 were identified that covered 100% of the protein sequence (Table 4). The HX-MS data files were analysed using Waters DynamX 1.0 that automatically applies lock-mass correction and determines the degree of deuterium incorporation in each peptide. […]

For assay [4], the target named is T3, full length cynomolgus monkey (c)TREM-1 on cells (cynomolgus monkey).
T3 construct: also called cynoTREM-1; cTREM-1 reporter cell
T3 chain: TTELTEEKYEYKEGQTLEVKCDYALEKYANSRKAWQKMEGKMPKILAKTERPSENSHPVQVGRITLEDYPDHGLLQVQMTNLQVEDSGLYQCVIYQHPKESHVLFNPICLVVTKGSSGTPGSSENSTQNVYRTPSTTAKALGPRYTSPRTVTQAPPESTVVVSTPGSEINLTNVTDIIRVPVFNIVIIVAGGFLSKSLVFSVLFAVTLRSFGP
Nature of the assay: binding to cynomolgus monkey PBMCs, FIG. 6A.

The target in assay [5] is T3, full length cynomolgus monkey (c)TREM-1 …. Nature of the assay: binding to cynomolgus monkey PBMCs, FIG. 6B.

The record followed here is patent US20170190775A1 (published 2017).

Residue numbers refer to the chain shown, from its start. Names and notes keep the numbering of the source.

B1: mAb 0122 (antibody, human IgG4 S228P, kappa, V domains shown)
VH: EVQLVESGGGLVQPGGSLKLSCAASGFTFSTYAMHWVRQASGKGLEWVGRIRTKSSNYATYYAASVKGRFTISRDDSKNTAYLQMNSLKTEDTAVYYCTRDMGQRRQFAYWGQGTLVTVSS
VL: DIVLTQSPDSLAVSLGERATINCRASESVDTFDYSFLHWYQQKPGQPPKLLIYRASNLESGVPDRFSGSGSGTDFTLTISSLQAEDVAVYYCQQSNEDPYTFGQGTKLEIKR
notes: Second humanised TREM-1 antibody; also called 14F113/14F69 hz variant LC M4L
For orientation: Kd means a measure of binding affinity in units of concentration. For B1, the Kd in assay [1] came out at 0.97 nM.

B2: mAb 0124 (antibody, V domains shown)
VH: B1 VH
VL: DIVMTQSPDSLAVSLGERATINCRASESVDTFDYSFLHWYQQKPGQPPKLLIYRASNLESGVPDRFSGSGSRTDFTLTISSLQAEDVAVYYCQQSNEDPYTFGQGTKLEIK
notes: Recombinant; LC G68R (Kabat) in CDR grafted 14F113; also called 14F113/14F69 hz variant LC G68R; 14F113 hz variant LC G68R
B2 showed a Kd in assay [1] of 1.1 nM.

B3: mAb 0170 (antibody, human IgG4 S228P, kappa, V domains shown)
VH: B1 VH with Q104I
VL: B1 VL
notes: Final humanised antibody from hybridoma 14F113 with LC M4L back-mutation and HC CDR3 Q98I (Kabat); also called 14F113/14F69 hz variant LC Q98I
For B3, the Kd in assay [1] worked out at 3.6 nM; in assay [2] it was 3 nM. In addition, the binding result in assay [3] is “binds”.

B4: mAb 0048 (antibody, V domains shown)
VH: EVQLVESGGGLVQPKGSLKLSCAASGFTFNTYAMHWVRQAPGKGLEWVARIRTKSNNYATYYVDSVKDRITISRDDSQSMLYLQMNNLKTEDTAMYYCVRDMGIRRQFAYWGQGTLVTVSA
VL: DIVLTQSPASLAVSLGQRATISCRASESVDSFGISFMHWYQQSPGQPPKLLIYRASNLESGIPARFSGSGSRTDFTLTINPVEADDVATYYCQQSNEDPYTFGGGTKLEIKR
notes: also called 14F11A1B1; 14F11
For the molecule B4, the Kd in assay [1] was found to be 1.2 nM. Moreover, the binding result in assay [4] is reported as “binds”.

B5: mAb 0054 (antibody, V domains shown)
VH: B4 VH
VL: B4 VL
notes: Hybridoma antibody 14F128A1; also called 14F128A1; 14F128
Regarding B5, the binding result in assay [4] is “binds”.

B6: mAb 0059 (antibody, IgG1, V domains shown)
VH: B4 VH with A23G, G26D, K43M, G44A, N56S, V63A, I70F, S79N, I104Q
VL: B4 VL with S31T, G33D, I34Y, M37L, S43K, K111E
notes: Recombinant; also called 14F113/14F69; 14F113A1B1C1 (recombinant)
Molecule B6 returned a Kd in assay [1] of 0.67 nM.

B7: mAb 0068 (antibody, V domains shown)
VH: B4 VH
VL: B4 VL
notes: Recombinant; also called 14F128/14F11 (recombinant)
Turning to B7, in assay [1], the Kd was found to be 12 nM.

B8: mAb 0067 (antibody, V domains shown)
VH: B4 VH
VL: B4 VL
notes: also called 14F11A1B1 (recombinant)
The molecule B8 gave a Kd in assay [1] of 4.7 nM.

B9: mAb 0044 (antibody, IgG2a, V domains shown)
VH: B4 VH with V5E, A23G, G26D, K43M, G44A, N56S, V63A, I70F, S79N, I104Q
VL: B4 VL with S31T, G33D, I34Y, M37L, S43K, K111E
notes: Hybridoma antibody; also called 14F69A1; 14F69
As for B9, the binding result in assay [5] is “binds”.
